The source of these data is the Immune Epitope Database (IEDB).

The test has as its target HLA-A*02:01. As to the kind of experiment: IEDB peptide-MHC binding, purified MHC/competitive/radioactivity; ≥ and ≤ were set here for values at or beyond the usual limits of such assays.
[1] abbreviates: source organism: Vaccinia virus WR.
Where [2] appears, read: source organism: Mammarenavirus whitewaterense.

With KLLLWFNYL, the IC50 under setting [1] was 2 nM. Still for that read-out and setting: in the case of KLMGTITLNA it was 12 nM.

KLMIYGLPWM: the 50% inhibitory concentration (IC50) under setting [1] came to 11 nM. For the sequence KLNGAMVEYV, under setting [1], the half-maximal inhibitory concentration (IC50) worked out at 6.1 nM. On the same count and under the same terms, in the case of KLNKMTVEL it was 6.5 nM. On the same count and under the same terms, in the case of KLQAAPYIV it was 1.2 nM. Still for that read-out and setting: in the case of KLQAAVMET it was 363 nM; in that of KLRPNSFWFV, 2 nM.

Consider KLSCAVHLI, for which the concentration for half-maximal inhibition (IC50) under setting [1] was 3.2 nM. Still for that read-out and setting: as for KLSDVGHQYA, the figure is 21 nM; as for KLSSYHVVSV, 16 nM. On the same count and under the same terms, as for KLTDKKTFI, the figure is 1120 nM; as for KLTDKKTFII, 4390 nM. Turning to KLTDSLSSQM, the IC50 under setting [1] came to 935 nM. Regarding KLTFLDVEV, the concentration for half-maximal inhibition (IC50) under setting [1] came out at 93 nM.

Turning to KLVDICDRI, the IC50 under setting [1] was 6.9 nM. Still for that read-out and setting: as for KLVDICDRIV, the figure is 32 nM; as for KLVSISNFI, 6.3 nM; as for KLYLVDYGL, 13 nM. For KLYLVDYGLV, under setting [1], the half-maximal inhibitory concentration (IC50) is 20 nM.

As for KLYTIVSTL, the concentration for half-maximal inhibition (IC50) under setting [1] came out at 15 nM. Still for that read-out and setting: in the case of KMAGGIGLSI it was 9.7 nM; in that of KMCTVSDYI, 36 nM; in that of KMEYNLYAEL, 297 nM. Same read-out and setting: in the case of KMHDVIAPA it was 2.6 nM; in that of KMIPLLFIL, 2.9 nM.

As to KMKCFGNTAV, the IC50 (source organism: Mammarenavirus juninense) was found to be 2930 nM. KQDISLKRNA: the IC50 under setting [1] turned out to be 778 nM. On the same count and under the same terms, in the case of KQDRSDGYFL it was 3910 nM. Still for that read-out and setting: in the case of KQFIQRGGL it was 3990 nM; in that of KTDGIPITI, 48 nM. Take KTFKDESIFI: the IC50 under setting [1] turned out to be 93 nM.

With KTIIDPDFV, under setting [1], the half-inhibitory concentration (IC50) worked out at 346 nM. On the same count and under the same terms, as for KTISVVTLL, the figure is 287 nM; as for KTITTCYLM, 445 nM; as for KTMAVTYEL, 0.4 nM. Still for that read-out and setting: in the case of KTSTLIFFV it was 1 nM. The same measure, in the same setting: in the case of KVFFGPIYYL it was 18 nM; in that of KVHGLDVKNV, 1900 nM; in that of KVTRFYFNM, 95 nM. Take KVYDKLFPV: the 50% inhibitory concentration (IC50) under setting [1] was found to be 0.34 nM. Same read-out and setting: as for LAALFMYYA, the figure is 52 nM; as for LAERFCTEV, 234 nM; as for LAKAIITPVV, 2360 nM. Same read-out and setting: in the case of LIAFSSGTV it was 1810 nM; in that of LIFFVIILA, 234 nM.

As to LILSCIFAFI, the IC50 under setting [1] was 18 nM. Still for that read-out and setting: as for LILSLTCSV, the figure is 1.3 nM; as for LIMYSVIGV, 0.55 nM.

In the case of LIQEIVHEV, the 50% inhibitory concentration (IC50) under setting [1] turned out to be 33 nM.

With LISGSTFSI, the concentration for half-maximal inhibition (IC50) under setting [1] was found to be 496 nM. The same measure, in the same setting: as for LISLTNEIYA, the figure is 1220 nM. On the same count and under the same terms, as for LITLTNVVNI, the figure is 1060 nM; as for LITMLSIIL, 115 nM. The same measure, in the same setting: in the case of LITWLIDYV it was 71 nM; in that of LIVLFEVFV, 1930 nM. Consider LIVLFEVFVV, for which the IC50 under setting [1] came to 2070 nM. Same read-out and setting: in the case of LIVRYLIQV it was 13 nM; in that of LIYSMEFTNL, 345 nM; in that of LLDLFGPEV, 6 nM.

Consider LLEAVYGNI, for which the IC50 under setting [1] was 864 nM. The same measure, in the same setting: as for LLEIHQYPA, the figure is 98 nM; as for LLFDRDTFYI, 0.4 nM.

LLFFLALSI: under setting [1], the IC50 turned out to be 26 nM.

Consider LLFILFYFA, for which the 50% inhibitory concentration (IC50) under setting [1] was found to be 85 nM. Consider LLFLKVPA, for which the IC50 (source organism: Influenza A virus) was 266 nM.

LLFLVCFPST: the IC50 under setting [1] was found to be 413 nM. On the same count and under the same terms, as for LLHVFQEYRL, the figure is 27 nM; as for LLIHFLLSL, 17 nM. On the same count and under the same terms, as for LLISMYCSKT, the figure is 1150 nM; as for LLLDYMTST, 7 nM.

As to LLLETKTILV, under setting [1], the IC50 came to 3.3 nM.

In the case of LLLLLFHSYA, the half-inhibitory concentration (IC50) under setting [1] was 9.7 nM. Still for that read-out and setting: as for LLLWPLYVL, the figure is 0.21 nM. Still for that read-out and setting: as for LLMMTLPSI, the figure is 0.11 nM; as for LLMTSLQYA, 2.5 nM; as for LLNLLLWPL, 0.073 nM. Still for that read-out and setting: in the case of LLNPCLINV it was 3.4 nM. Turning to LLPGFVLTCI, the concentration for half-maximal inhibition (IC50) under setting [1] came out at 3.7 nM. Regarding LLQFIVFLL, the half-maximal inhibitory concentration (IC50) under setting [2] is 159 nM. Consider LLSAINFKI, for which the IC50 under setting [1] stood at 0.54 nM.

As to LLSKNTFYL, the IC50 under setting [1] was determined as 3.1 nM.

For LLSLFSTLV, the IC50 under setting [1] is 12 nM.

Regarding LLSLLVIWI, the IC50 under setting [1] is 148 nM. Same read-out and setting: in the case of LLSLLVIWIL it was 112 nM; in that of LLSQYLSRV, 1 nM.

LLSSVDYKNI: under setting [1], the IC50 was found to be 908 nM.

Consider LLSYYVVYV, for which, under setting [1], the concentration for half-maximal inhibition (IC50) was found to be 0.46 nM. In the case of LLVAPMPTA, the IC50 under setting [1] stood at 13 nM. The same measure, in the same setting: in the case of LLVQRVTSV it was 3.1 nM; in that of LLYAHINAL, 8.3 nM.

Consider LLYILRYIV, for which the IC50 under setting [1] was 138 nM. On the same count and under the same terms, as for LLYLILFLL, the figure is 2200 nM. Turning to LMDCIMFDAA, the IC50 (source organism: Mammarenavirus lassaense) amounted to 595 nM.

With LMDSIFVST, the IC50 under setting [1] was determined as 0.72 nM. The same measure, in the same setting: in the case of LMEVFPQLDL it was 244 nM; in that of LMGTITLNA, 173 nM. Still for that read-out and setting: as for LMIEYNLLT, the figure is 1.5 nM; as for LMIFISSFLL, 27 nM; as for LMMSCISCI, 12 nM. The same measure, in the same setting: as for LMMTLPSIFL, the figure is 0.2 nM.

In the case of LMPIRTDTT, the half-inhibitory concentration (IC50) under setting [1] worked out at 2170 nM. Still for that read-out and setting: as for LMSNIKTMMI, the figure is 1560 nM; as for LMSTLLIYL, 0.13 nM; as for LMYDIINSV, 1.8 nM. LQISQCQRI: the concentration for half-maximal inhibition (IC50) under setting [1] stood at 1370 nM. Still for that read-out and setting: in the case of LQKFSFKIA it was 4660 nM; in that of LQYDLWNVV, 22 nM.

With LTDKKTFII, the IC50 under setting [1] was determined as 881 nM.

In the case of LTDSLSSQM, the IC50 under setting [1] was 4270 nM.

LTFNFTPKI: under setting [1], the half-maximal inhibitory concentration (IC50) worked out at 251 nM. The same measure, in the same setting: as for LTFWQIDYL, the figure is 7.3 nM; as for LTIMGVIFL, 608 nM. Consider LTIMGVIFLI, for which the concentration for half-maximal inhibition (IC50) under setting [1] worked out at 9.4 nM. Still for that read-out and setting: in the case of LTNEIYASI it was 864 nM; in that of LTNEIYASII, 4330 nM; in that of LTNVVNIST, 3980 nM.

LTREMGFLV: the concentration for half-maximal inhibition (IC50) under setting [1] was determined as 2360 nM. Consider LTSLGLLYTV, for which the IC50 (source organism: Mammarenavirus brazilense) amounted to 218 nM.

Consider LTVLGLGLSL, for which the IC50 under setting [1] was determined as 1930 nM.

With LVASLNPNM, the IC50 under setting [1] is 387 nM.

Regarding LVDAIDNIV, the IC50 under setting [1] turned out to be 37 nM.

On to LVDICDRIV, for which, under setting [1], the half-inhibitory concentration (IC50) turned out to be 2140 nM. Same read-out and setting: as for LVDNVDFAT, the figure is 461 nM; as for LVDNVDFATI, 3670 nM; as for LVFIKPPLI, 55 nM. Same read-out and setting: in the case of LVITINYFL it was 25 nM; in that of LVLGIALLYI, 6.7 nM. The same measure, in the same setting: in the case of LVVDNGELM it was 3600 nM; in that of MASPENVIL, 846 nM; in that of MIDDSIEGI, 210 nM. As for MIITAVNSL, the concentration for half-maximal inhibition (IC50) under setting [2] was 2430 nM. Turning to MIITAVNSLI, the IC50 under setting [2] was determined as 438 nM. Regarding MINDTHFLL, the IC50 under setting [2] stood at 265 nM. For MISRHCCIL, under setting [1], the 50% inhibitory concentration (IC50) amounted to 1030 nM. With MITMSAFLI, the IC50 under setting [1] worked out at 422 nM. Same read-out and setting: in the case of MITMSAFLIV it was 386 nM; in that of MIYGLIACL, 8.5 nM; in that of MLFVNDLMT, 747 nM. Same read-out and setting: as for MLFVNDLMTM, the figure is 51 nM; as for MLIEVILTA, 5 nM. On the same count and under the same terms, in the case of MLLALVALV it was 0.42 nM.

The IC50 is the point on the concentration scale where inhibition reaches its midpoint.
